Results taken from PMC4636054.

Biological target: LlaBIII (UniProt A0A0M3KL05 1-1578)
Test: X-ray crystallography

B1: LlaBIII 28 bp DNA (dsDNA)
DNA 1: GCTCTAGCTAATAGACTGAGCCGAGGTG
DNA 2: CACCTCGGCTCAGTCTATTAGCTAGAGC
  binding result: binds
